This note sets out measurements from publication PMC11542177, “Recurrent Neurodevelopmentally Associated Variants of the Pre-mRNA Splicing Factor U2AF2 Alter RNA Binding Affinities and Interactions”.

Some targets named below: U2AF2 12L WT (UniProt P26368 141-342); U2AF2 12L Arg150Cys (UniProt P26368 141-342, R150C); U2AF2 12L Arg149Trp (UniProt P26368 141-342, R149W); U2AF2 12L Arg150His (UniProt P26368 141-342, R150H).
What all share (assay): fluorescence anisotropy; Fluorescence anisotropy: 25 nM RNA, 100 mM NaCl, 25 mM HEPES pH 6.8, 0.2 mM TCEP; temperature not stated; three replicates
Conditions in all cases: protein: recombinant; label: 5'-fluorescein; single strand
Background: Fluorescence polarisation rises when a labelled molecule tumbles more slowly, as on binding a larger partner.

Chain of U2AF2 12L Arg149Trp (P26368 141-342 R149W): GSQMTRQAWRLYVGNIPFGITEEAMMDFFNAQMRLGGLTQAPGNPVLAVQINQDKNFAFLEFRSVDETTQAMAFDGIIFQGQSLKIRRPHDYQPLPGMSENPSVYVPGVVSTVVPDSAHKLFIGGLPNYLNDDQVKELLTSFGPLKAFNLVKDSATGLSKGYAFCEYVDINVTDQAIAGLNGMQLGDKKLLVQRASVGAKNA
Chain of U2AF2 12L Arg150His (P26368 141-342 R150H): as the sequence (P26368 141-342 R149W) above, with W9R, R10H counted along it
Chain of U2AF2 12L WT (P26368 141-342): as the sequence (P26368 141-342 R149W) above, with W9R counted along it
Chain of U2AF2 12L Arg150Cys (P26368 141-342 R150C): as the sequence (P26368 141-342 R149W) above, with W9R, R10C counted along it

B1: nine-uridine consensus Py tract RNA (ssRNA)
RNA: UUUUUUUUU
For the molecule B1, the binding result in the data set with U2AF2 12L WT was “binds”. Further, the binding signal was ~5 fold decrease in affinity vs WT with U2AF2 12L Arg150Cys, ~3 fold decrease in affinity vs WT with U2AF2 12L Arg149Trp and ~4 fold decrease in affinity vs WT in the data set with U2AF2 12L Arg150His.
